According to the nanobody polyreactivity screen of Harvey et al. (2022):

Assay: yeast display, Sf9 membrane polyspecificity reagent, FACS + sequencing; frameworks hold sequencing errors
In short: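 After 36–48 hours of galactose induction, yeast (Saccharomyces cerevisiae BJ5465) displaying a synthetic nanobody library were stained at 4 °C for 1 hour with 10% biotinylated, detergent-solubilized Sf9 membrane reagent. Streptavidin microbeads enriched the stained cells before FACS sorting into low and high (top ~1%) gates on anti-HA and streptavidin fluorescence. Each clone's polyreactivity label reflects its gate of origin.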

Row | Sequence | polyreactivity (PSR sort gate)
1 | QVHLVESGGGLVQAGGSLRLSFAAYGIIFKYYAMVWYRQAPGKERELVASITDRGGSTYYSDSLKGRFTISRDNAKNTFYLQMNSLKPEDTAVYYCAAVPSTGKSGIRGGYWGQCTQVTVSS | high polyreactivity
2 | QVHLVESGGGLVQAGGSLRLSSAASGITFVINAMGWYRQAPGKERELVASINFDTDTTYADSEKGRFTISRDNAKNTVYLQMNSLKPEDTAVYYCNADLPWARHTVDSIEFDYWGQGTQVTVSS | low polyreactivity
3 | QVHLVESGGGLVQAGGSLRLSSPASGRIFQDNAMGWYRQAPGKERELVAAISSSGGSTYYADSVKGRFTISRDNAKNTVYLHMNSLKPEDTAVYYCAADYYWYWDLYDYWGQGTQVSVSS | high polyreactivity
4 | QVHLVESGGGLVQAGGSLRLTCAASGFTFQGYAMGRYRQAPGKERELVAAISIGGVRTYYADSVKGRFTISRDNAKNTVYLQMNSLKPEDTAVYYCAKDGSKLSSYNYWGQGTQVTVSS | high polyreactivity
5 | QVHLVESGGGLVQAGGSLRLTCAASGIIFRWYAMGWYRQAPGKERELVAAISSGGGRTHYADSVKGRFTISRDNAKNTVYLQMNSLKPEDTAVYYCAAALRGQSSRFDYWGQGTQVTVSS | high polyreactivity
6 | QVHLVESGGGLVQAGGSLRLTCAASGSIFRFYTMGWYRPATGKERELVATISRGGSTNYADSVKGRFTISRDNAKNSVSLQMNSLKPEVTGVYYCNFGALYSTYWGYGYDYWGQGTQVTVSS | high polyreactivity
7 | QVHLVESGGGLVQAGGSLRLTCSASGFTFSTYAMGWYRPAPGKESEMVAVISWNGGSTYYADTVKGRFTISRYNAKNTVYLQMNSLKTEDTAVYYCAARGSFKKGYWGQGTQVTVSS | high polyreactivity
8 | QVHLVESGGGLVQAGGSLRVSCAASGSIFLDNAMGWYRQAPGKERELVADISYSGGSTYYADSVKGRFTISRDNAKNTVYLQMISLKPEDTAVYYCAAGVQLTVPPLRSSVTEYDYWGQGSQVTVSS | low polyreactivity
9 | QVHLVESGGGLVQAGGSLRVSCAASGSIFPDNAMGWYTQAPGKERELVAAITFSGGRTYYADSVKGRFTISRDNAKNTVYLQMNSQKPEDTAVYYCATAKGVKLYRYPDYSGYYPYDYWGQGTQVTVSS | high polyreactivity
10 | QVHLVESGGGLVQAGGSLSLSCAASGFTYTSYAMGWYRQAPGTEREFVAAIRRSGSGTYYADSVKGRFTISRVNAKNTVYLQMNSLNPEDTAVYYCAVVPPRLYYHYDYWGQGTQVTVSS | high polyreactivity
11 | QVHLVESGGGLVQAGVSLRLSCAASGSIFEGNGMGWYRQAPGKERELVAAITFRSGSTYYADSVKGRFTNSRDNAKNTVYLQMNSLKPEDTAVYYCAADEYYQVSAYDYWGQGTKVTVSS | low polyreactivity
12 | QVHLVESGGGLVQAGVSLRLSCPASGIIFWFYAMGWYRQSPGKERQLVAAISGDGDSTYYADSVKGRFTISRDNAKNTVYLQMNSLKPEDTAVYYCAAEWDPVFATDEDDYWGQRTQVTVSS | low polyreactivity
13 | QVHLVESGGGLVQEGGSLRLTSAASGITFVRNTLGWYRQAPGKERELVAAIDSGGNTYADSVKGRFTITRDNAKNTVYLQMNSLKPEDTAVYFCAVDGGEVSSYGYWGQGTQVTVSS | low polyreactivity
14 | QVHLVESGGGLVQSGGSLRLSCAASGRIFYYNAMGWYRQAPGKERELVAAITSSSGSSTYYADSVKGRFTISRDNAKNTVYLQMNSLKPEDTAVYYCAADATFIIRYLSRSDYWGQGTQVTVSS | low polyreactivity
15 | QVHLVESGGPLVQAGGSLRLSCAASGYTFWGNAMGWYRQAPGKERELVAGITGSGVSTYYADSVKGRFTISRDNAKNTVYLQMNNLKPEDTAVYYCARRVVFAHKYATSYFLLEYGYWGQGTQVSVSS | low polyreactivity
16 | QVHLVESGGRLVQAGGSIRLSCAASGLTYGSYAMGWYRQAPGKERELVAAIYQSGGSTYYADSVMARFTISRDNANNTVYLQMNRLKPEDTVVYYCNAEAWVTLDWWQWVAYDFWGQGTQVTVSS | high polyreactivity
17 | QVHLVESGGRLVQAGGSLRLSCAESGFTFGSNVKGAYRQAPGKEREFVDAITSSGRTKYADSVKGRFTISRDNAKNTVYLQMNSLKPEDTAVYYCAARPSQWNYDYRRVYYWVQGTQVTVSS | high polyreactivity
18 | QVHLVESGGVLVQAGGSLRLSCAASAGNFDTYAMGRYRQAPGKEREMVADITWSGGSTYYADSVKGRFTISRDNAKNTVYLQMNSLKPEDTAVYYCNADDPSKLGYEPDYWGQGTQVTVSS | low polyreactivity
19 | QVHLVESGGVLVQAGGSLRLSCAASGFTFNRYAMGWYRQAPGKERELVAAITSAGNTYYADSVKARFTNSRDNGKNTVYLQMNSMKPEDTAVYYCLNGRYWRRYDYWGQGTQVTVSS | high polyreactivity
20 | QVHLVESGGVLVQAGGSLRLSCAASGSIFDDYAMGWYRQAPGKERELVAAISSSGTSTYYADSVKGRFTISRDTANNTVYLQMNSLKPEDTAVYYCAARSAILDYWGQGTQVTVSS | low polyreactivity
21 | QVHLVESRGVLVQAGCSLRLSCAASGRIFTDYAMGWYRQAPRKERELVAAISGSGGSTYYADSVKVRFSISRDNAKNNVYLQMNSLKPEDTAVYYCAARVARRYEWGQGTQVTVSS | high polyreactivity
22 | QVHLVESRGVLVQAGGSLRLSCAASGRTFGYYAMGWYRQAPGKERELVAAINGSGSRTYYADSVKGRFTISRDNAKNSVYLQMNSLKPEDSAVYYCAATYPKYQYDYWGQGTQVTVSS | high polyreactivity
23 | QVHLVESVGGLVQAGGSLRLSCAASGYIFGGYAMAWYRQAPGKERELVAAISRSGGSTYYADSVKGRFTISRDNAKNTVYLQINSLKPVDTAVYYCAVRGYTLPYGYWGQGTQVTVSS | high polyreactivity
24 | QVHLVESVGGLVQAGGSLRLSSPASGGTLWVNTMGWYRQAPGKERELVAAISRRGGSTYYADSVKGRFTISRDNAKNTVYLQMNSRKPEDTAVYYCNARENAVSLRDYWGQGTQVTVSS | high polyreactivity
25 | QVHLVESWGGLVQAGGSLRLSCAASGSTFGYNAMGWYRQAPGKERELVAAITSGGSTNYADSVKGRFTISRDNAKNTVYLQMNSLKPEDTAVYYCAKLAADRRSYYWGQGTQVTVSS | high polyreactivity
26 | QVHLVQSGGGLVQAGGSLRLSCAASGSILYFYAKGWYRQAPGKERELVAAISWTGGSTYYADSVKGRFTISRDNAKNTVYLQMNSLKPEDTAVYYCAAELWYEGYDYWGQGTQVTVSS | high polyreactivity
27 | QVHLVVSGGGLVQAGRSLRLICAASGSTFKAYAMGWYRQAPGKERELVAAITRRGTSTYYADSVKGRFTISRDNAKKTVYLQMNSLKPEDTADYYSNAKYVSDRSSAVSFDYWGQGTQVTVSS | low polyreactivity
28 | QVHQQESGGDLEQAGGSLRLSCTASGTISDVRFMGWYRQAPGKERELVATISYVTITYYADSVKGRFTISRDSEKHRVSADDEHETGRYRGVFLLYYWGLGTQVTVSS | low polyreactivity
29 | QVHRVESGGGLVQAGGSLRLSCDASGNIFYDYAMGWYRQGPGKERELVAAIDLSDGSTYYSDSVKGRFTISRDNAKNTVYFQMNSLKPDDTAVYYCAADIIAAWTSDYYYWGQGSQVTVSS | high polyreactivity
30 | QVHRVESGGGLVQAGGSLRVSCAATGINFSDYAMGWYRQEPGKERQLVAAITGGGSTYYADSVKGRFTISRDNAKNTVYLQMNSLKPEDTAVSYCNAVWARLWIRSTEVDYRGQGTQVTVSS | low polyreactivity
